Experimental data published in the domain aggregation screens of Martell et al. (2025).

Experiment: soluble fraction after stress (log2 fold change); higher = more stays soluble; pooled small domains, quantitative proteomics
Settings: stress: 75 degC
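Further: 20 min heating vs room temperature control held 20 min.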

Row | Sequence | soluble fraction (log2)
1 | HMTDLQNDIQAFNLKKMSYQHETKKLEEKRNPEKLEKLEQDIQALYLRIMENPNMRAFDSAKQALYLQIM | -0.948
2 | HMTDLVVGLAGITLEPLRPAGKAEFNGSVVDVVSLGDYIEKSTAIQIVEIEGNRIVVHHGED | -0.865
3 | HMTDQYEVQNLVGLTVREAQEKEGVKDIFEVREVGSEFSAEYDAGLIVRQSPDAGEQRKGEGLVIEVWVSA | 0.106
4 | HMTDSLELADLLRRAIITGEYKPRERLVEMELAQKYSVSRTPVREALKHLEALGLVKMERYKGAMVAD | -0.911
5 | HMTDSQLVEAENHVALRQAMAHLGPRERELIGLYYFEEQSQTQIAARFGVSQMQVSRWLTSAVGRIRGQMA | 0.209
6 | HMTDWNTVEKETLSAIQKVLSGQASWIDLSPADHSIRHMQHEMVQQAGLISQSYGKEPMRRIRIYQNP | -0.039
7 | HMTEDADIERRLTGILASAGWYRSLAVEVKEGIVYLDGATASGNHRDWAGSLAAKTEGVVAVVNRIEVQP | -1.86
8 | HMTEDIAVRILEFLEDNNGFYALNDKTPSEKIHDLFGVSKKKFKIALGGLYKQRLITVSDAGVTLVK | -1.67
9 | HMTEDTPIIVERVVADIDENVVAIVRKFKDAFKSITAQREIKKKLRSILWVNYQIKDQEVFDKAYQYIEMY | 0.241
10 | HMTEEDVVIFSGLSDRDLKMVQTELANSGIKYTLPTSGTVSVPNSEIARAQMVLAMAGIPRS | 0.246
11 | HMTEEVIIQNYIGKNFNDVRDELEAKGITVDEPNMKYSDEFKENTIMAQSIKPGQPLKPGGFNSIKFDVS | -0.0167
12 | HMTEFFNMQDMFYFKLTGDVTSKERRQSLGKILGIGYGNAAQMVSRLNNYGITKEEFTNAINEIEKQMEAG | -0.715
13 | HMTEISGIEKFLASGAINGIGPAMAKKIVAEFGEKTLEIIAKSPNELLKVPGIGKKTAEKISTSYLEQ | -0.04
14 | HMTEKEEERTEDLNYYRLNLISMLKSSYPEYLDDEEFISNRSQEAAEAFEDAVRSGSNYLDASAESNRTLY | -0.229
15 | HMTEKIRLTVDEAGKNQRVDKYISTLLTQFSRSSIKTWIETGNILLDNTRTKPRTLLSPGQVIDIQPRFED | -1.09
16 | HMTEKIVFNIDGQTGRIDKILADFMTGTSRSQIQAWVKDGNLMVNDKAVKSNYKVQDGDLLELTIPEPEQ | -0.284
17 | HMTELIEDYVELIGDLIRHRGEARAADIANRMAVSQATVSKMIRRLNELGLVTSKPYRSLFLTDEGQKMAE | -0.363
18 | HMTELLTPKQRQVFELALREGYYDVPRRTSITEMARLLGVAKSTLSAQMHRMEATVMSTFAEEIRKQ | -2.01
19 | HMTENIPPVKIEEMRQKWQDIVLLHGVTSGRKIKSGQATYIWLYRNDQNWLLTFNSRHLSQPQV | 0.232
20 | HMTEPKILTAEESQRLDLILVQQWPELGRRALRELVQQGGVRINGELALKAGQYVQAGERVEVAVP | 0.232
21 | HMTEQKNNEQQNAVNEKKQALKQLMEKGKEKGSLSYNEVNALLDKLEFTEDQKAIVYDQLHSEDIELQ | 0.3
22 | HMTEQLTLVGKTGVTTTDLRPSGKVEVDGKRYDAVADNGAFISKGAHIKVVRYVTGQVYVVPTD | -0.0624
23 | HMTERIRLHDDIGSWVEKHGATRSALIPVLQGIQRSYNEISEYAMQEVADRLDIHPVEVYSVVSFYSF | 0.307
24 | HMTESFEFTMNDLVQNNLIMGSGAKERRIAVGEALGIGYTNAKQFLSRLNHYGITRKEFDDEIEKVNQN | -0.311
25 | HMTETEIVIGGKYRHYKGGEYELVSIVKHSETLEELVIYKSLSTGEMWARPKSLFVGLVDGQPRYTL | -2.22
26 | HMTETIPVSERLFRYLFEEKGKRVQKIQQTSHARVRMERSPYSVVVSGTKDAVEAAMESLKATEKELLEA | -0.161
27 | HMTETPDDLLAALKKNKKAQATFDAFSPSNKKEYILWITEAKTEATRTKRLETAIEWMSEGKARNW | -0.579
28 | HMTETTTVPKLKGLTKDEAEDAAKSSKIKLEFIDEISKTVEAGVIIKQEKDEGETVNAGDTVKVYVSIGT | 0.472
29 | HMTEWSIHEVAQRSGVTTRTLRHYDAIGILSPTRTGANGYRYYGPEALVRLQRILLLRDLGLALSDIAE | -3.82
30 | HMTEYFTIESQEGERIDRYLSEELEDKSRSYIQKLIRDGHVLVDGKTVKAGYRLVAGDNIAITLPEI | -0.132
